In the test the target is T1, human DC-SIGN (DC-specific intercellular adhesion molecule 3-grabbing nonintegrin) (human, UniProt Q9NNX6 1-404).
T1 construct: whole, on cells; Target on THP-1 cells transfected with human DC-SIGN and on human moDCs; also called CD209; human DC marker DC-SIGN
T1 sequence (looked up): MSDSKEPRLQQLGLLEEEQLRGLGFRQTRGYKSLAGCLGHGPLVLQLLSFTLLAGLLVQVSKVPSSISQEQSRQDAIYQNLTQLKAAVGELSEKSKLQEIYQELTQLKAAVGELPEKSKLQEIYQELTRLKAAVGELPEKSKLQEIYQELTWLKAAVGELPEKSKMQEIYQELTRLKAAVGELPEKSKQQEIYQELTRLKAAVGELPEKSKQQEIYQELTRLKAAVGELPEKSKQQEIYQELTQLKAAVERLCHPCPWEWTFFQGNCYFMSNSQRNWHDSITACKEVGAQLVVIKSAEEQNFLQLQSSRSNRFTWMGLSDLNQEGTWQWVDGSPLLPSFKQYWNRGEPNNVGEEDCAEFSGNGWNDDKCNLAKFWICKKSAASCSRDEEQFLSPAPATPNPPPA
Nature of the test: confocal microscopy, fluorescent vaccine on human monocyte-derived DCs. The protocol: FIG. 3: Z-sections through a human monocyte-derived dendritic cell (moDC) incubated with Lipovaxin-MM. […] Cells were placed on coverslips immediately prior to observation under the confocal microscope.

B1: DMS5000 (other)
VH: STEVQLLESGGGLVQPGGSLRLSCAASGFTFDRRAMGWVRQAPGKGLEWVSSIESDGTRTYYADSVKGRFTISRDNSKNTLYLQMNSLRAEDTAVYYCAKHPGSSYVFDYWGQGTLVTVSS
notes: Human VH domain antibody (dAb), made as a secreted protein in E. coli; also called DC-SIGN specific domain antibody (dAb); dAb
Consider B1, for which the binding result is “binds”.

(Values after patent US20140341971A1 (LIPOTEK, published 2014).)
